The target of one experiment is T1, CD303 ectodomain (human, UniProt Q8WTT0 45-213).
T1 construct: also called ectodomain of the human CD303 antigen
T1 sequence: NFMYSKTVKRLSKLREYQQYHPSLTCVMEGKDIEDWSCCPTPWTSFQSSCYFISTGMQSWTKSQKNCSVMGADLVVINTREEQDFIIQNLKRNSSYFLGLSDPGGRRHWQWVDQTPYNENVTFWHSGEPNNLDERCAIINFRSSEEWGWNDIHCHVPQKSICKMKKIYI
Description: ELISA on coated CD303 ectodomain, 5 ng/mL antibody. The method, then: This technique, which uses a colorimetric approach, makes it possible to detect and visualize antigen-antibody interactions. The principle of ELISA is, first, to coat each well of a MaxiSorp plate with 10 ng of the antigen, in this case the CD303 ectodomain. The latter was purchased from the supplier Mybiosource. Second, the various antibodies produced, contained in the supernatant, are all diluted to the same concentration, and contacted with the antigen to allow them to bind. A third step consists in adding the secondary antibodies, HRP-conjugated anti-human antibody, necessary for amplified detection of the antigen-binding of the anti-CD303 antibodies. Lastly, detection is carried out using a solution containing the substrate for the enzyme (3,3′,5,5′-tetramethylbenzidine, or TMB). The appearance of coloring of the substrate indicates the formation of the antigen-antibody complex. The intensity of this coloring is proportional to the amount of enzyme present and thus to the amount of antibody tested bound to the antigen. The reaction is stopped by adding H₂SO₄ (acid). These colors are read using a spectrophotometer at a wavelength of 450 nm.
A concentration of 5 ng/mL is used to classify the humanized antibodies (FIG. 10).
(An ELISA detects its analyte on a solid surface through an enzyme-linked reagent.)

Experiment [1] concerns the target T2, human CD303 antigen expressed on cells (human, UniProt Q8WTT0 1-213).
T2 construct: On Fcγ chain-CD303 Jurkat cells, CAL-1 cells, and CAL-1 cells transfected with a CD303 expression vector; also called BDCA-2; BDCA2
T2 sequence: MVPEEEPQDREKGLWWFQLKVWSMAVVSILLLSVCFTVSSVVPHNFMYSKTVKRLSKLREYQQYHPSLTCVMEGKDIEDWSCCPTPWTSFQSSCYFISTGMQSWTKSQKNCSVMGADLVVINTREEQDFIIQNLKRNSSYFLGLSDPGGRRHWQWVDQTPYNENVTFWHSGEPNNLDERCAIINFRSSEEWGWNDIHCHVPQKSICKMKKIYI
The experiment in a line: flow cytometry on Fcγ chain-CD303 Jurkat cells. The method, then:
(§1) The CD303-expressing cells and the antibodies are prepared in diluent (PBS+1% FCS). 1·10⁵ cells are incubated at 4° C. for 30 minutes with 100 μL of antibody (anti-CD303 or negative control) at various concentrations (0-40 μg/mL, final concentration).
(§2) After washing with the diluent, the antibodies are visualized by addition of a phycoerythrin (PE)-coupled goat anti-mouse IgG F(ab′)₂ fragment (100 μL diluted to 1:100 in the diluent) for 45 minutes at 4° C. The cells are then washed and analyzed by flow cytometry (FC500, Beckman Coulter).
(In general: In flow cytometry, cells or beads pass a laser one at a time.)

Experiment [2] has as its target T2, human CD303 antigen expressed on cells. The experiment in a line: cell-based or functional assay.
The target of experiment [3] is T3, FcγRIIIa (CD16a) (UniProt P08637 17-254, limits assumed).
T3 construct: whole, on cells; also called Fcγ receptor III
T3 sequence (P08637 17-254 limits assumed): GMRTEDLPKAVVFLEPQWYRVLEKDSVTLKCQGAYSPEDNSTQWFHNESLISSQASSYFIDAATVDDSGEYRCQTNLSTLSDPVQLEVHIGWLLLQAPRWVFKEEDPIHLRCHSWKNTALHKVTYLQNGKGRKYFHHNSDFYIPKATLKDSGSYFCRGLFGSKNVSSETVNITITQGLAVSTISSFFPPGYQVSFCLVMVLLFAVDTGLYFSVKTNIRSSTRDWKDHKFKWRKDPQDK
Description: competition with 3G8-PE for CD16 on NK cells, flow cytometry.

For experiment [4], the target named is T2, human CD303 antigen expressed on cells. The experiment in a line: flow cytometry on CAL-1 cells. The method, then:
as §1, §2

For experiment [5] the target is unchanged. The experiment in a line: cell-based or functional assay. This is another data set of the same source.
Experiment [6] has the same target. Description: flow cytometry on CAL-1 cells, 0.1 µg/mL, supernatant. The protocol: The line used to carry out this technique, CAL-1, is a leukemic cell line of plasmacytoid dendritic cells obtained from a BPDCN patient. The antibodies produced were tested in supernatant, but also in forms purified by affinity chromatography with protein A-sepharose (not elaborated upon herein).
For cell staining, the cells and the antibodies are prediluted with PBS/1% FCS. In a 100 μL reaction volume, 1·10⁵ cells are incubated at 4° C. for 30 minutes with the anti-CD303 antibodies to be tested, at two concentrations: 0.1 μg/mL or 1 μg/mL. This incubation is followed with several washings. The cell/antibody complexes thus formed are then contacted for 30 minutes at 4° C. with the secondary antibody diluted 1:50, an anti-human IgG Fc F(ab′)₂ coupled to a fluorochrome, phycoerythrin. […] Various negative controls are used to eliminate possible nonspecific binding, such as: the cells alone or directly in contact with the secondary antibody, or replacing the antibody tested with an irrelevant chimeric antibody (factor VIII anti-idiotype).

Experiment [7] concerns the target T3, FcγRIIIa (CD16a). Description: cell-based or functional assay.

Substitutions are numbered along the chain they refer to.

B1: humanized antibody 102E9H10 (antibody, human IgG1, kappa, V domains shown)
VH: QIHLVQSGPELKKPGESVKISCKASGYTFTDYSMHWVRQAPGQGLKWMGWINTETGEPTYAQDFKGRFVFSLDTSVSTAYLQINSLKNEDTSTYYCTRNGYYVGYYAMDYWGQGTSVTVSS
VL: QIQLTQSPSFLSASPGERVTITCSASSSVIYIHWFQQKPGTAPKLWIYSTSYLASGVPSRFSGSGSGTSYTLTISRMEAEDFATYYCQQRRSYPFTFGGGTKLEIKR
As for B1, the “CD303 ectodomain-binding capacity relative to chimeric antibody 102E9” value with CD303 ectodomain was 80%.

B2: humanized antibody 102E9H9 (antibody, human IgG1, kappa, V domains shown)
VH: B1 VH with R38K, Q62D
VL: B1 VL
Take B2: the “CD303 ectodomain-binding capacity relative to chimeric antibody 102E9” value in the experiment with CD303 ectodomain was determined as 71%.

B3: humanized antibody 102E9H6 (antibody, human IgG1, kappa)
heavy: not shown
light: QIQLTQSPSFLSASPGERVTITCSASSSVIYIHWFQQKPGKAPKLWIYSTSYLASGVPSRFSGSGSGTEYTLTISSMEAEDFATYYCQQRRSYPFTFGGGTKLEIKRTVAAPSVFIFPPSDEQLKSGTASVVCLLNNFYPREAKVQWKVDNALQSGNSQESVTEQDSKDSTYSLSSTLTLSKADYEKHKVYACEVTHQGLSSPVTKSFNRGEC
Regarding B3, the “CD303 ectodomain-binding capacity relative to chimeric antibody 102E9” value in the experiment with CD303 ectodomain amounted to 73%.

B4: humanized antibody 102E9H7 (antibody, human IgG1, kappa)
heavy: not shown
light: B3 light
For B4, the “CD303 ectodomain-binding capacity relative to chimeric antibody 102E9” value with CD303 ectodomain amounted to 76%.

B5: chimeric antibody 104C12 (antibody, human IgG1, kappa)
heavy: not shown
light: DLQMTQTPSSLSASLGDRVTISCRASQDINNYLSWYQEKPDGTFKLLIYYTSRLHSGVPSRFSGSGSGTDYSLTVRNLEQEDIGTYFCQQGKTLPWTFGGGTKLEIRRTVAAPSVFIFPPSDEQLKSGTASVVCLLNNFYPREAKVQWKVDNALQSGNSQESVTEQDSKDSTYSLSSTLTLSKADYEKHKVYACEVTHQGLSSPVTKSFNRGEC
notes: Produced in YB2/0
In the case of B5, in experiment [1], the “Bmax (MFI)” value came out at 27.7 MFI and the EC50 (as a rule, the concentration giving half of the maximal effect) was 0.178 µg/mL. In experiment [2], the “ADCC EC50, Fcγ chain-CD303 Jurkat target cells with NK cells” value (from here on “ADCC EC50”) is 0.214 ng/mL and the “ADCC Emax (% lysis), Fcγ chain-CD303 Jurkat target cells with NK cells” value (“ADCC Emax (% lysis)” below) was 41.8 % lysis. In addition, the IC50 (as a rule, the concentration that inhibits the measured activity by half) with FcγRIIIa (CD16a) [3] was 26.8 µg/mL. Further, in experiment [4], the “Bmax (MFI)” value is 29 MFI and the midpoint of the response, the EC50, lay at 0.345 µg/mL.

B6: chimeric antibody 104E10 (antibody, human IgG1, kappa)
heavy: not shown
light: QIVLTQSPAIMSASPGEKVTMTCSASSSVIYMHWFQQKPGTSPKLWIYSTSNLASGVPARFSGSGSGTSYSLTISRMEAEDAATYYCQQRRSYPYTFGGGTKLEIKRTVAAPSVFIFPPSDEQLKSGTASVVCLLNNFYPREAKVQWKVDNALQSGNSQESVTEQDSKDSTYSLSSTLTLSKADYEKHKVYACEVTHQGLSSPVTKSFNRGEC
notes: Produced in YB2/0
As for B6, in experiment [1], the “Bmax (MFI)” value was 23.7 MFI and the EC50 was 6.06 µg/mL. Besides, in experiment [2], the “ADCC EC50” value is 8.28 ng/mL and the “ADCC Emax (% lysis)” value came out at 40.5 % lysis. This molecule also registered an IC50 with FcγRIIIa (CD16a) [3] of 18.1 µg/mL. In experiment [4], the “Bmax (MFI)” value is 29.2 MFI and the EC50 came to 1.93 µg/mL.

B7: chimeric antibody 114D11 (antibody, human IgG1, kappa)
heavy: not shown
light: B6 light with M21I, I30F
notes: Produced in YB2/0
As for B7, in experiment [1], the “Bmax (MFI)” value stood at 24.7 MFI and the EC50 worked out at 3.98 µg/mL. Moreover, in experiment [2], the “ADCC EC50” value came out at 3.61 ng/mL and the “ADCC Emax (% lysis)” value was determined as 37.4 % lysis. Moreover, in the experiment with FcγRIIIa (CD16a) [3], the IC50 amounted to 45 µg/mL. Moreover, in experiment [4], the “Bmax (MFI)” value came to 30.1 MFI and a half-maximal response (EC50) required 1.7 µg/mL.

B8: humanized antibody 122A2H5 (antibody, human IgG1, kappa)
heavy: not shown
light: DIQMTQSTSSLSASLGDRVTITCQASQDISNYLNWYQQKPDGTVKLLIYYTSRLHTGVPSRFSGSGSGTDYSLTISNLDQEDIATYYCQQGNTLPWTFGGGTKLEIKRTVAAPSVFIFPPSDEQLKSGTASVVCLLNNFYPREAKVQWKVDNALQSGNSQESVTEQDSKDSTYSLSSTLTLSKADYEKHKVYACEVTHQGLSSPVTKSFNRGEC
As to B8, the “IC50 for IFN-α secretion from pDCs contained in PBMCs” value (“IC50 for IFN-α secretion” for short) in experiment [5] is 0.819 ng/mL.

B9: humanized antibody 122A2H7 (antibody, human IgG1, kappa, V domains shown)
VH: QVQLQQSGAEVVKPGASVKISCKGSGYTFTDYSMHWVRQAPGQGLEWIGVISTYYGDSNYNQKFKGKVTMTVDKSSSTAYMELSRLTSDDTAVYYCARNGNFYVMDYWGQGTLVTVSS
VL: DIQMTQSTSSLSASLGDRVTITCQASQDISNYLNWYQQKPDGTVKLLIYYTSRLHTGVPSRFSGSGSGTDYSLTISNLDQEDIATYYCQQGNTLPWTFGGGTKLEIKR
Turning to B9, the “IC50 for IFN-α secretion” value in experiment [5] is 0.865 ng/mL.

B10: humanized antibody 122A2H15 (antibody, human IgG1, kappa, V domains shown)
VH: B9 VH
VL: B9 VL with R53N, D79Q
For B10, the binding result in experiment [6] was “binds”.

B11: humanized antibody 122A2H10 (antibody, human IgG1, kappa, V domains shown)
VH: B9 VH with P41H, G42A, Q43K, G44S, K74T, T87R
VL: B9 VL with T8P, L15V
Turning to B11, the “IC50 for IFN-α secretion” value in experiment [5] stood at 0.947 ng/mL.

B12: humanized antibody 122A2H14 (antibody, human IgG1, kappa, V domains shown)
VH: B9 VH with P41H, G42A, Q43K, G44S, K74T, T87R
VL: B9 VL with R53N, D79Q
With B12, the binding result in experiment [6] is reported as “binds”.

B13: humanized antibody 122A2H9 (antibody, human IgG1, kappa)
heavy: not shown
light: B8 light with T8P, L15V
B13: the “IC50 for IFN-α secretion” value in experiment [5] stood at 0.911 ng/mL. In addition, in the experiment with FcγRIIIa (CD16a) [7], the “IL-2 secretion by CD16 Jurkat cells: 50%, with ch122A2 = 1 (Mean)” value was 0.73 ratio to ch122A2; the “IL-2 secretion by CD16 Jurkat cells: 50%, with ch122A2 = 1 (experiment 2126 16 057)” value is 0.66 ratio to ch122A2; the “IL-2 secretion by CD16 Jurkat cells: 50%, with ch122A2 = 1 (experiment 2126 16 059)” value was 0.78 ratio to ch122A2; the “IL-2 secretion by CD16 Jurkat cells: 50%, with ch122A2 = 1 (experiment 2126 16 066)” value is 0.74 ratio to ch122A2.
